Results as given in the supplement of paper PMC10724198.
± gives the standard deviation of the averaged measurements.

System: Saccharomyces cerevisiae
Assay: protein stability index of tFT-peptide fusion (C-terminal peptide) (PSI (0-1 scale)); higher = more stable (slower turnover)
Conditions: temperature: 30 C
Description: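 MPS profiling in S. cerevisiae of the yeast C-terminome library: the last 12 aa of each annotated ORF are fused to the C-terminus of a sfGFP-mCherry timer, after a GGGS linker. Cells are FACS-sorted into 8 mCherry/sfGFP bins and deep-sequenced. PSI runs from 0 (unstable) to 1 (stable); wild type and das1Δ backgrounds, two technical replicates each.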

[1] = genetic background: das1 deletion

For IKYNWERCFNGE [YDR521W C-terminal 12 aa], the protein stability index [1] was 0.71 ± 0.014 and the protein stability index (genetic background: wild type) was 0.697 ± 0.04.

GKDRPSRFNSKK [TEX1 C-terminal 12 aa] was tested, and the protein stability index [1] was 0.693 ± 0.011 and the protein stability index (genetic background: wild type) was 0.667 ± 0.038.

AWAKKLKSMRRS [TAM41 C-terminal 12 aa] was tested, and the protein stability index [1] was 0.709 ± 0.013 and the protein stability index (genetic background: wild type) was 0.634 ± 0.021.

Sequence ADFLAKKGASRR [RNH1 C-terminal 12 aa] has a protein stability index [1] of 0.6944 ± 0.002 and a protein stability index (genetic background: wild type) of 0.698 ± 0.03.

For DGSADLGGWETM [UBR2 C-terminal 12 aa], the protein stability index [1] was 0.732 ± 0.026 and the protein stability index (genetic background: wild type) was 0.733 ± 0.048.

Sequence FVAEAYLDEFVY [ARC19 C-terminal 12 aa] has a protein stability index [1] of 0.71 ± 0.03 and a protein stability index (genetic background: wild type) of 0.662 ± 0.02.

With QVTWHKHSPRIQ [YKL202W C-terminal 12 aa] the protein stability index [1] was 0.713 ± 0.024 and the protein stability index (genetic background: wild type) was 0.7036 ± 0.0056.

In the case of DEFCSQRSYTRF [MIN7 C-terminal 12 aa], the protein stability index [1] is reported as 0.716 ± 0.042 and the protein stability index (genetic background: wild type) is reported as 0.701 ± 0.032.

DSEDDEDESDDE [SUI2 C-terminal 12 aa] showed a protein stability index [1] of 0.689 ± 0.036 and a protein stability index (genetic background: wild type) of 0.717 ± 0.094.

With LLEDQVPVETKA [PYC1 C-terminal 12 aa] the protein stability index [1] was 0.551 ± 0.018 and the protein stability index (genetic background: wild type) was 0.582 ± 0.0095.

With AFMMICEKLITL [SEC59 C-terminal 12 aa] the protein stability index [1] was 0.7062 ± 0.0011 and the protein stability index (genetic background: wild type) was 0.5394 ± 0.0032.

With TTTGDKKSEEKQ [TCB2 C-terminal 12 aa] the protein stability index [1] was 0.685 ± 0.027 and the protein stability index (genetic background: wild type) was 0.69 ± 0.032.

Sequence VPNDNNEQRSSQ [SAN1 C-terminal 12 aa] has a protein stability index [1] of 0.7041 ± 0.0064 and a protein stability index (genetic background: wild type) of 0.662 ± 0.011.

LASKHSQYTSPQ [RGT2 C-terminal 12 aa] was tested, and the protein stability index [1] was 0.72 ± 0.0086 and the protein stability index (genetic background: wild type) was 0.662 ± 0.014.

SYKDTKRWMFKK [PSF3 C-terminal 12 aa] gave a protein stability index [1] of 0.724 ± 0.057 and a protein stability index (genetic background: wild type) of 0.715 ± 0.078.

With QSQYPDVGIPAI [YAR023C C-terminal 12 aa] the protein stability index [1] was 0.7082 ± 0.0034 and the protein stability index (genetic background: wild type) was 0.669 ± 0.011.

LLCSDLVNGLMQ [SEC21 C-terminal 12 aa] gave a protein stability index [1] of 0.706 ± 0.029 and a protein stability index (genetic background: wild type) of 0.707 ± 0.0075.

For “YSFNKLTMTILY [YER137W-A C-terminal 12 aa]”, the protein stability index [1] was 0.6999 ± 0.0014 and the protein stability index (genetic background: wild type) was 0.633 ± 0.026.

In the case of IPAYKKHGIQKN [OSH7 C-terminal 12 aa], the protein stability index [1] is reported as 0.694 ± 0.012 and the protein stability index (genetic background: wild type) is reported as 0.693 ± 0.038.

Work on NSEKDQVPILSS [SSK22 C-terminal 12 aa] yielded a protein stability index [1] of 0.702 ± 0.011 and a protein stability index (genetic background: wild type) of 0.729 ± 0.041.

QPKIEINVDQYD [SPC1 C-terminal 12 aa] was tested, and the protein stability index [1] was 0.691 ± 0.047 and the protein stability index (genetic background: wild type) was 0.6919 ± 0.0036.

KINKNGLLENIL [IES3 C-terminal 12 aa] showed a protein stability index [1] of 0.702 ± 0.019 and a protein stability index (genetic background: wild type) of 0.7227 ± 0.0051.

Sequence ALGLAGVAMLFL [SED1 C-terminal 12 aa] has a protein stability index [1] of 0.694 ± 0.02 and a protein stability index (genetic background: wild type) of 0.647 ± 0.0089.

ESDHPTLADNSV [MRL1 C-terminal 12 aa] gave a protein stability index [1] of 0.6955 ± 0.0041 and a protein stability index (genetic background: wild type) of 0.6912 ± 0.00095.

For QTDGMGLVSWWE [RPC25 C-terminal 12 aa], the protein stability index [1] was 0.751 ± 0.011 and the protein stability index (genetic background: wild type) was 0.749 ± 0.041.

PEALIKSMTSKL [SPS19 C-terminal 12 aa] showed a protein stability index [1] of 0.712 ± 0.038 and a protein stability index (genetic background: wild type) of 0.725 ± 0.18.

For MVEAAALKRNKK [ARO10 C-terminal 12 aa], the protein stability index [1] was 0.686 ± 0.049 and the protein stability index (genetic background: wild type) was 0.7161 ± 0.0026.

Work on KLKRAKRKGISE [IMP21 C-terminal 12 aa] yielded a protein stability index [1] of 0.693 ± 0.013 and a protein stability index (genetic background: wild type) of 0.692 ± 0.012.

EKHSFSTTQQVV [NRT1 C-terminal 12 aa] was tested, and the protein stability index [1] was 0.666 ± 0.019 and the protein stability index (genetic background: wild type) was 0.664 ± 0.028.

TARPFPAPNIAA [YLR349W C-terminal 12 aa] was tested, and the protein stability index [1] was 0.728 ± 0.029 and the protein stability index (genetic background: wild type) was 0.67 ± 0.016.

Work on TIISKGYAKIRD [TAF4 C-terminal 12 aa] yielded a protein stability index [1] of 0.68 ± 0.022 and a protein stability index (genetic background: wild type) of 0.7 ± 0.049.

For KTVGKLVLEIPQ [ZTA1 C-terminal 12 aa], the protein stability index [1] was 0.689 ± 0.033 and the protein stability index (genetic background: wild type) was 0.701 ± 0.051.

EKMKKNQSIGWF [MRPL25 C-terminal 12 aa] showed a protein stability index [1] of 0.756 ± 0.02 and a protein stability index (genetic background: wild type) of 0.73159 ± 0.00064.

TTPTLPTFRTVA [FKS3 C-terminal 12 aa] was tested, and the protein stability index [1] was 0.686 ± 0.018 and the protein stability index (genetic background: wild type) was 0.6971 ± 0.0014.
